Test results as given in the supplement of paper PMC7877785.
± gives the uncertainty stated by the source.

Assay: self-splicing fitness, log relative to wild type (ln ratio); higher = more splicing; Tetrahymena group I intron in knt gene, E. coli kanamycin selection, DiMSum; sequences stand for … in CUCUCU…GGAGGGAAAAGUUAUCAGGCAUGCACCUGGUAGCUAGUCUUUAAACCAAUAGAUUGCAUCGGUUUAAAAGGCAAGACCGUCAAAUUGCGGGAAAGGGGUCAACAGCCGUUCAGUACCAAGUCUCAGGGGAAACUUUGAGAUGGCCUUGCAAAGGGUAUGGUAAUAAGCUGACGGACAUGGUCCUAACCACGCAGCCAAGUCCUAAGUCAACAGAUCUUCUGUUGAUAUGGAUGCAGUUCACAGACUAAAUGUCGGUCGGGGAAGAUGUAUUCUUCUCAUAAGAUAUAGUCGGACCUCUCCUUAAUGGGAGCUAGCGGAUGAAGUGAUGCAACACUGGAGCCGCUGGGAACUAAUUUGUAUGCGAAAGUAUAUUGAUUAGUUUUGGAGUACUCGUGGUCG
In short: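 Fitness was computed with DiMSum as the error-weighted combination of replicate fold changes, kanamycin versus none, each normalised to wild type. The library randomised all eight intron nucleotides of the P1ex region, with the intron placed in the knt kanamycin-resistance gene on pET-22b(+) in E. coli BL21(DE3). Six replicate transformations were grown overnight at 37°C or 30°C on LB agar with or without 25 μg/mL kanamycin, plus 100 μg/mL carbenicillin, 50 μM IPTG and 0.2% rhamnose. Pooled colonies were amplicon-sequenced on an Illumina HiSeq 2500.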

Sequence	self-splicing fitness (ln) (30 °C)	self-splicing fitness (ln) (37 °C)
AAUAAGCAAUAUUACGUGCU	-1.8 ± 0.074	-1.29 ± 0.08
AAUAAGCAAUAUUACGUGGG	-3 ± 0.13	-2.75 ± 0.17
AAUCAGCAAUAUUACGAAAA	-1.45 ± 0.092	-0.169 ± 0.1
AAUCAGCAAUAUUACGAACA	-0.526 ± 0.12	-0.161 ± 0.13
AAUCAGCAAUAUUACGAACU	-0.125 ± 0.05	0.389 ± 0.077
AAUCAGCAAUAUUACGACCG	-0.959 ± 0.098	-0.795 ± 0.11
AAUCAGCAAUAUUACGAUUA	-0.229 ± 0.088	-0.426 ± 0.088
AAUCAGCAAUAUUACGAUUU	-1.8 ± 0.076	-0.714 ± 0.086
AAUCAGCAAUAUUACGCAAA	-0.0279 ± 0.067	-0.117 ± 0.078
AAUCAGCAAUAUUACGCAGA	-1.04 ± 0.068	-0.32 ± 0.07
AAUCAGCAAUAUUACGCAUA	-0.272 ± 0.085	-0.142 ± 0.13
AAUCAGCAAUAUUACGCCAG	-0.398 ± 0.16	-1.58 ± 0.17
AAUCAGCAAUAUUACGCUAG	-0.729 ± 0.066	0.121 ± 0.09
AAUCAGCAAUAUUACGGAAU	-0.646 ± 0.065	-0.35 ± 0.075
AAUCAGCAAUAUUACGUCCA	-0.876 ± 0.1	-0.0432 ± 0.12
AAUCAGCAAUAUUACGUGAA	-0.152 ± 0.065	0.257 ± 0.094
AAUCAGCAAUAUUACGUUUC	-2.83 ± 0.14	-1.2 ± 0.13
AAUGAGCAAUAUUACGAAAG		-3.18 ± 0.4
AAUGAGCAAUAUUACGAAUA	-3.37 ± 0.39	-2 ± 0.32
AAUGAGCAAUAUUACGACAG	-3.71 ± 0.29	-1.85 ± 0.26
AAUGAGCAAUAUUACGACAU	-1.33 ± 0.014	-0.714 ± 0.033
AAUGAGCAAUAUUACGACCG	-3.45 ± 0.36	-1.24 ± 0.34
AAUGAGCAAUAUUACGACGG	-3.86 ± 0.19	-2.3 ± 0.21
AAUGAGCAAUAUUACGAGAA	-2.17 ± 0.23	-2.03 ± 0.32
AAUGAGCAAUAUUACGAGCC	-1.79 ± 0.44	
AAUGAGCAAUAUUACGAGCU	-3.15 ± 0.24	-3.57 ± 0.42

Sequence	self-splicing fitness (ln) (30 °C)	self-splicing fitness (ln) (37 °C)
AAUGAGCAAUAUUACGAGGU	-4.31 ± 0.29	-2.49 ± 0.17
AAUGAGCAAUAUUACGAUAA	-3.11 ± 0.17	-2.51 ± 0.2
AAUGAGCAAUAUUACGAUCA		-2.46 ± 0.31
AAUGAGCAAUAUUACGCAAC	-2.46 ± 0.22	-2.51 ± 0.44
AAUGAGCAAUAUUACGCACC		-1.2 ± 0.48
AAUGAGCAAUAUUACGCCGG	-3.52 ± 0.47	-2.35 ± 0.36
AAUGAGCAAUAUUACGCCGU		-2.55 ± 0.26
AAUGAGCAAUAUUACGCGCG	-2.52 ± 0.18	-1.9 ± 0.2
AAUGAGCAAUAUUACGCUCU	-3.18 ± 0.19	-3.53 ± 0.23
AAUGAGCAAUAUUACGGACC		-1.08 ± 0.44
AAUGAGCAAUAUUACGGCAG	-2.62 ± 0.24	-1.87 ± 0.46
AAUGAGCAAUAUUACGGCAU	-1.55 ± 0.12	-0.695 ± 0.12
AAUGAGCAAUAUUACGGCCC	-1.23 ± 0.47	-1.48 ± 0.37
AAUGAGCAAUAUUACGGGCU	-2.51 ± 0.18	-2.21 ± 0.46
AAUGAGCAAUAUUACGGUCA	-1.92 ± 0.28	-1.45 ± 0.36
AAUGAGCAAUAUUACGUAAU	-3.08 ± 0.17	-1.33 ± 0.15
AAUGAGCAAUAUUACGUACA	-2.3 ± 0.36	-3.21 ± 0.33
AAUGAGCAAUAUUACGUAGC	-2.91 ± 0.2	-2.05 ± 0.36
AAUGAGCAAUAUUACGUAUU	-3.41 ± 0.14	-2.48 ± 0.16
AAUGAGCAAUAUUACGUCGC	-3.95 ± 0.29	-2.79 ± 0.32
AAUGAGCAAUAUUACGUCGG	-3.31 ± 0.22	-2.44 ± 0.4
AAUGAGCAAUAUUACGUGUC	-3.39 ± 0.25	-3.65 ± 0.39
AAUUAGCAAUAUUACGAAAC		-0.761 ± 0.4
AAUUAGCAAUAUUACGAACC	-0.0097 ± 0.32	-0.827 ± 0.36
AAUUAGCAAUAUUACGAAGU	-2.79 ± 0.21	-1.05 ± 0.17
AAUUAGCAAUAUUACGAAUA	-1.67 ± 0.41	0.49 ± 0.3

Sequence	self-splicing fitness (ln) (30 °C)	self-splicing fitness (ln) (37 °C)
AAUUAGCAAUAUUACGACUU	0.0659 ± 0.11	0.0237 ± 0.14
AAUUAGCAAUAUUACGAGAG	-3.43 ± 0.23	-1.09 ± 0.18
AAUUAGCAAUAUUACGAGGC	-2.7 ± 0.32	-2.6 ± 0.44
AAUUAGCAAUAUUACGAGUA	-1.86 ± 0.24	-1.16 ± 0.18
AAUUAGCAAUAUUACGAUCG	-0.473 ± 0.13	0.0147 ± 0.16
AAUUAGCAAUAUUACGAUGC	-1.25 ± 0.15	-0.872 ± 0.18
AAUUAGCAAUAUUACGAUUC	-2.85 ± 0.24	-1.13 ± 0.34
AAUUAGCAAUAUUACGCAAG	-0.991 ± 0.13	-1.4 ± 0.19
AAUUAGCAAUAUUACGCACG	-2.18 ± 0.2	-0.641 ± 0.17
AAUUAGCAAUAUUACGCCUG	-0.979 ± 0.14	-0.733 ± 0.21
AAUUAGCAAUAUUACGCCUU	-0.243 ± 0.11	-0.0919 ± 0.12
AAUUAGCAAUAUUACGCGAA	-1.34 ± 0.15	-1.89 ± 0.25
AAUUAGCAAUAUUACGCGAU	-3.62 ± 0.32	-2.31 ± 0.23
AAUUAGCAAUAUUACGCGGU	-3.63 ± 0.21	-1.55 ± 0.21
AAUUAGCAAUAUUACGCUCA	-0.656 ± 0.12	-0.204 ± 0.16
AAUUAGCAAUAUUACGGAGA	-3.3 ± 0.45	-1.98 ± 0.36
AAUUAGCAAUAUUACGGCAG	-0.691 ± 0.11	-0.322 ± 0.1
AAUUAGCAAUAUUACGGCGG	-1.81 ± 0.11	-0.193 ± 0.13
AAUUAGCAAUAUUACGGCUG	-0.324 ± 0.082	0.339 ± 0.12
AAUUAGCAAUAUUACGGGGA	-2.98 ± 0.27	-2.07 ± 0.26
AAUUAGCAAUAUUACGGUCC	-0.652 ± 0.12	0.122 ± 0.15
AAUUAGCAAUAUUACGUAGG	-2.69 ± 0.12	-1.96 ± 0.18
AAUUAGCAAUAUUACGUAUA	-1.83 ± 0.28	-1.32 ± 0.38
AAUUAGCAAUAUUACGUGGA	-3.12 ± 0.2	-2.27 ± 0.17
AAUUAGCAAUAUUACGUGGC	-3.39 ± 0.2	-1.96 ± 0.24
AAUUAGCAAUAUUACGUGUG	-2.11 ± 0.11	-0.784 ± 0.096
